Patent US20180369203

Target: GST-tagged active human MEK1, Q02750

B1: GST-tagged inactive human ERK1 (protein)
chain: MAAAAAQGGGGGEPRRTEGVGPGVPGEVEMVKGQPFDVGPRYTQLQYIGEGAYGMVSSAYDHVRKTRVAIKKISPFEHQTYCQRTLREIQILLRFRHENVIGIRDILRASTLEAMRDVYIVQDLMETDLYKLLKSQQLSNDHICYFLYQILRGLKYIHSANVLHRDLKPSNLLINTTCDLKICDFGLARIADPEHDHTGFLTEYVATRWYRAPEIMLNSKGYTKSIDIWSVGCILAEMLSNRPIFPGKHYLDQLNHILGILGSPSQEDLNCIINMKARNYLQSLPSKTKVAWAKLFPKSDSKALDLLDRMLTFNPNKRITVEEALAHPYLEQYYDPTDEPVAEEPFTFAMELDDLPKERLKELIFQETARFQPGVLEAP
- in vitro HSF1 Ser326 phosphorylation by GST-MEK1 in the presence of inactive GST-ERK1, detected by immunoblotting: recombinant ERK1 proteins impeded in vitro HSF1 Ser326 phosphorylation by recombinant MEK1 proteins
